The values that follow come from patent publication CN113754772A (SUNSHINE GUOJIAN PHARMACEUTICAL SHANGHAI CO LTD, dated 2021).

The chains are these.
B1: anti-PDL1×KDR BsAb3 (bispecific antibody, human IgG1, lambda)
heavy: not shown
light: VLTQPPSVSGAPGQRVTISCTGSHSNFGAGTDVHWYQHLPGTAPKLLIHGDSNRPSGVPDRFSGSKSGTSASLAITGLQAEDEADYYCQSYDYGLRGWVFGGGTKLTVLGQPKAAPSVTLFPPSSEELQANKATLVCLISDFYPGAVTVAWKADSSPVKAGVETTTPSKQSNNKYAASSYLSLTPEQWKSHRSYSCQVTHEGSTVEKTVAPTECS
notes: also called 抗PDL1×KDR双抗
B2: 抗KDR单抗 (anti-human KDR monoclonal antibody) (antibody, V domains shown)
VH: EVQLVESGGGLVKPGGSLRLSCAASGFTFSSYSMNWVRQAPGKGLEWVSSISSSSSYIYYADSVKGRFTISRDNAKNSLYLQMNSLRAEDTAVYYCARVTDAFDIWGQGTLVTVSS
VL: VLTQPPSVSGAPGQRVTISCTGSHSNFGAGTDVHWYQHLPGTAPKLLIHGDSNRPSGVPDRFSGSKSGTSASLAITGLQAEDEADYYCQSYDYGLRGWVFGGGTKLTVL
notes: Whole monoclonal antibody; CDRs from clone 3A10 of Dan Lu et al. 2003, frameworks mutated in house; also called 抗人KDR单抗; anti-KDR mAb
B3: anti-PDL1×KDR BsAb1 (bispecific antibody)
heavy (part 1 of 2): QVQLQQSGGGLVKPSQSLSLTCTVSGFSLTSYGVHWVRQPPGKGLEWIGLIWSGGGTDYNPSLKSRLTISRDTSKNQVSFKISSLTAADTAVYYCARQLGLRAMDYWGQGTSVTVSS
heavy (part 2 of 2): GGGGSGGGGSGGGGSVLTQPPSVSGAPGQRVTISCTGSHSNFGAGTDVHWYQHLPGTAPKLLIHGDSNRPSGVPDRFSGSKSGTSASLAITGLQAEDEADYYCQSYDYGLRGWVFGGGTKLTVLGGGGSGGGGSGGGGSGGGGSEVQLVESGGGLVKPGGSLRLSCAASGFTFSSYSMNWVRQAPGKGLEWVSSISSSSSYIYYADSVKGRFTISRDNAKNSLYLQMNSLRAEDTAVYYCARVTDAFDIWGQGTLVTVSS
light: EIVLTQSPDFLSVTPKEKVTITCRASQSIGTTIHWYQQKPDQSPKLLIKYASQSFSGVPSRFSGSGSGTDFTLTINSVEAEDAATYYCQQSNSWPLTFGAGTKLEIKRTVAAPSVFIFPPSDEQLKSGTASVVCLLNNFYPREAKVQWKVDNALQSGNSQESVTEQDSKDSTYSLSSTLTLSKADYEKHKVYACEVTHQGLSSPVTKSFNRGEC
notes: also called 抗PDL1×KDR双抗; not shown: CH1-CH2-CH3 heavy chain constant region
B4: anti-PDL1×KDR BsAb2 (bispecific antibody)
heavy (part 1 of 2): B3 heavy (part 1 of 2)
heavy (part 2 of 2): GGGGSGGGGSGGGGSEVQLVESGGGLVKPGGSLRLSCAASGFTFSSYSMNWVRQAPGKGLEWVSSISSSSSYIYYADSVKGRFTISRDNAKNSLYLQMNSLRAEDTAVYYCARVTDAFDIWGQGTLVTVSSGGGGSGGGGSGGGGSGGGGSVLTQPPSVSGAPGQRVTISCTGSHSNFGAGTDVHWYQHLPGTAPKLLIHGDSNRPSGVPDRFSGSKSGTSASLAITGLQAEDEADYYCQSYDYGLRGWVFGGGTKLTVL
light: B3 light
notes: as for B3
B5: 抗PD-L1单抗 (anti-human PD-L1 monoclonal antibody M8) (antibody, V domains shown)
VH: B3 heavy (part 1 of 2)
VL: EIVLTQSPDFLSVTPKEKVTITCRASQSIGTTIHWYQQKPDQSPKLLIKYASQSFSGVPSRFSGSGSGTDFTLTINSVEAEDAATYYCQQSNSWPLTFGAGTKLEIK
notes: also called 抗人PD-L1单抗M8; anti-PDL1 mAb

T4 sequence (Q9NZQ7 other isoform, or with tags, fused parts or gaps): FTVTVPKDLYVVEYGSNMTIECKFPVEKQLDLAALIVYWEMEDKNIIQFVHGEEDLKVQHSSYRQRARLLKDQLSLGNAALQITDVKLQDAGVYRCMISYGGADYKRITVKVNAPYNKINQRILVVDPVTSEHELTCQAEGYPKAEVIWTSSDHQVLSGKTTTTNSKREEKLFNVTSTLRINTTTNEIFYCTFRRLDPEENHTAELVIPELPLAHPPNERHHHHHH
T3 sequence (Q9NZQ7 19-238): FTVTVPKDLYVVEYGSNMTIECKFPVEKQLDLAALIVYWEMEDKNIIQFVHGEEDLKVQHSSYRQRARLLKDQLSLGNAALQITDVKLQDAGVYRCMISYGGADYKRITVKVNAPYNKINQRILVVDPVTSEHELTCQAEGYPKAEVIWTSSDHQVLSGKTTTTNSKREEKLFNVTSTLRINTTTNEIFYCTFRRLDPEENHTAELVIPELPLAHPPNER

For one assay, the target named is T1, KDR-ECD-His蛋白 (human, UniProt P35968 20-764).
T1 construct: extracellular domain; Made in HEK-293E cells with an added N-terminal signal peptide (not part of the mature protein); also called KDR抗原
T1 sequence (P35968 other isoform, or with tags, fused parts or gaps): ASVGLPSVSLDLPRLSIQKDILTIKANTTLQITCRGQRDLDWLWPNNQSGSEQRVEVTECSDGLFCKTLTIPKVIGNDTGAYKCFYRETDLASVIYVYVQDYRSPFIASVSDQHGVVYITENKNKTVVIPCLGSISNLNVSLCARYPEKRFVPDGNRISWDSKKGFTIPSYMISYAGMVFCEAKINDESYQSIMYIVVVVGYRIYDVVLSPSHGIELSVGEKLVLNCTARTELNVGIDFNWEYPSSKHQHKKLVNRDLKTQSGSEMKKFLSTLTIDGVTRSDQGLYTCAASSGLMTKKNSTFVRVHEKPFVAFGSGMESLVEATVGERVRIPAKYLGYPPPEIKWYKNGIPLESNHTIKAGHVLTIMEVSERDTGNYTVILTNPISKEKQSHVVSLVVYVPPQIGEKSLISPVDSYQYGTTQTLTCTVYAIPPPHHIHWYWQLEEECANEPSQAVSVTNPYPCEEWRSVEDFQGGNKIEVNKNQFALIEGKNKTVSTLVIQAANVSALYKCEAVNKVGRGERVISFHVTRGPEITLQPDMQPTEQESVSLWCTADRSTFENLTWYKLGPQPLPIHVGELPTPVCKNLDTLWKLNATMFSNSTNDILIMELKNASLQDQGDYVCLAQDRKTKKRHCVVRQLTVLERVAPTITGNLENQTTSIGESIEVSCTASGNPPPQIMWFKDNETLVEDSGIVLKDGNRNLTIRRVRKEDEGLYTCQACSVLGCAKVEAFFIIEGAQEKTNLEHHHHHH
As to the kind of experiment: ELISA, KDR-ECD-His coated, HRP-anti-Fab. Background: ELISA stands for enzyme-linked immunosorbent assay.
Molecule B1 had a concentration giving a half-maximal response (EC50) of 0.41 nM.
On the same count and under the same terms, the same measure for B2: 0.26 nM.
The same measure, in the same setting: to B3 belongs 0.23 nM.
The same measure, in the same setting: to B4 belongs 0.23 nM.

In a further assay the target is T2, PD-L1 on N87-PDL1 cells (UniProt Q9NZQ7 19-290, limits assumed).
T2 construct: whole, on cells; also called N87-PDL1细胞
T2 sequence (Q9NZQ7 19-290 limits assumed): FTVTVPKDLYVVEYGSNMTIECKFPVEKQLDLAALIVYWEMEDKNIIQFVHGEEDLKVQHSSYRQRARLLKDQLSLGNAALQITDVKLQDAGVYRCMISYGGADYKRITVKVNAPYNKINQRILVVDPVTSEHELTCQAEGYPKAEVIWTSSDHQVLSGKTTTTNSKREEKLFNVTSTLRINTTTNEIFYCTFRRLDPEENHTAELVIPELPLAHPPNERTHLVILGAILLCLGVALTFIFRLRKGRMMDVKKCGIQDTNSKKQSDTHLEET
As to the kind of experiment: flow cytometry on N87-PDL1 cells, FITC goat anti-human Fc. For orientation: In flow cytometry, cells or beads pass a laser one at a time.
As to B1, the 50% effective concentration (EC50) was 0.21 nM.
In turn, B5 yielded a concentration giving a half-maximal response (EC50) of 0.13 nM.
On to B3, for which the EC50 stood at 0.15 nM.
The molecule B4 registered a half-maximal effective concentration (EC50) of 0.15 nM.

The target of a further assay is KDR on KDR/NFAT-RE HEK293 cells (UniProt P35968 20-1356). As to the kind of experiment: cell-based or functional assay.
Sequence of KDR on KDR/NFAT-RE HEK293 cells (P35968 20-1356): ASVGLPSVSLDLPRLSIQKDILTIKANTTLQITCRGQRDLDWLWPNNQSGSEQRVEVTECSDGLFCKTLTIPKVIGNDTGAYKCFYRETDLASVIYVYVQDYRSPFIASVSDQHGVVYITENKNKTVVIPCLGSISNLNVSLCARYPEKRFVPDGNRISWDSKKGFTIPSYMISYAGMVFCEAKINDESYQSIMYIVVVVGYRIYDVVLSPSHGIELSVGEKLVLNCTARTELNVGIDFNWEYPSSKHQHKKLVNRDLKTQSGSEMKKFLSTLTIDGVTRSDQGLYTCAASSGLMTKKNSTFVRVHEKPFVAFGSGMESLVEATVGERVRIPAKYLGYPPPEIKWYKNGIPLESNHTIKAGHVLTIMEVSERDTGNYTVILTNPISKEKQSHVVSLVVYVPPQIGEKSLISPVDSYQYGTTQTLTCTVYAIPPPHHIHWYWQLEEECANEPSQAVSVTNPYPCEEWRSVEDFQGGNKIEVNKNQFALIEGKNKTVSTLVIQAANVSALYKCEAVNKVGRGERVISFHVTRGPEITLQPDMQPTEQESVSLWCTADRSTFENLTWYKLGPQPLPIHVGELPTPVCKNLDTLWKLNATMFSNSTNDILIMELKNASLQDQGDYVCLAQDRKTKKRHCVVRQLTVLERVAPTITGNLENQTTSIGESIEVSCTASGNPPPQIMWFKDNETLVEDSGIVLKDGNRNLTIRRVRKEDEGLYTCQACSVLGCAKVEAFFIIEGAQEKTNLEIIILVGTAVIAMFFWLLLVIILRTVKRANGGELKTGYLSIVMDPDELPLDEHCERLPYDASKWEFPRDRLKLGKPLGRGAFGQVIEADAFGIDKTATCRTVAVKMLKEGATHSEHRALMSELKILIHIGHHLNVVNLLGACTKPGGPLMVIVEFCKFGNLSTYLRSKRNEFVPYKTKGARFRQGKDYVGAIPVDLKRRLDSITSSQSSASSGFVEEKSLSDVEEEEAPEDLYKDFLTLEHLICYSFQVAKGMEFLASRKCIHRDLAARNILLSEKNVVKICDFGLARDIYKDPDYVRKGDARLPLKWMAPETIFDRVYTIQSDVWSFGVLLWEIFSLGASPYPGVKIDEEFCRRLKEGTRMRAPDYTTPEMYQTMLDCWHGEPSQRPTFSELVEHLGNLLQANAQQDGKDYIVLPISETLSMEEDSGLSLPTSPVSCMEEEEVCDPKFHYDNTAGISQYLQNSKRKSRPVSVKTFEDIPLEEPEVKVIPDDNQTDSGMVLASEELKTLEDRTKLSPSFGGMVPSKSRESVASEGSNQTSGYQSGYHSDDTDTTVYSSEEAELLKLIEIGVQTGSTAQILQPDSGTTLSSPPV
Regarding B1, the “IC50 (luminescence, VEGF Bioassay)” value came to 4.35 nM.
With B2, the “IC50 (luminescence, VEGF Bioassay)” value stood at 3.1 nM.
On the same count and under the same terms, the same measure for B3: 13.5 nM.
As to B4, the “IC50 (luminescence, VEGF Bioassay)” value is 6.09 nM.

The target in a further assay is PD-L1 on PD-L1 aAPC/CHO-K1 cells (UniProt Q9NZQ7 19-290, limits assumed). As to the kind of experiment: cell-based or functional assay.
Sequence of PD-L1 on PD-L1 aAPC/CHO-K1 cells (Q9NZQ7 19-290 limits assumed): as the sequence (Q9NZQ7 19-290 limits assumed) above
Turning to B1, the “IC50 (luminescence, PD-1/PD-L1 Blockade Bioassay)” value was found to be 0.3 nM.
Still for that read-out and setting: the same measure for B5: 0.23 nM.
The same measure, in the same setting: the same measure for B3: 0.27 nM.
With B4, the “IC50 (luminescence, PD-1/PD-L1 Blockade Bioassay)” value was determined as 0.22 nM.

A further assay concerns the target T3, PDL1-ECD-hFc蛋白 (human, UniProt Q9NZQ7 19-238).
T3 construct: extracellular domain; PDL1-ECD-His with its C-terminal tag exchanged for hFc; not shown: hFc tag in place of the His tag
As to the kind of experiment: bridging ELISA: PDL1-ECD-hFc coated, antibody, then KDR-ECD-His, detected with HRP-anti-His.
Take B2: the binding result was “no binding (tested: 12nM)”.

For another assay, the target named is T1, KDR-ECD-His蛋白. The description is as above.
In the case of B5, the binding result is “no binding (tested: 12nM)”.

The next assay concerns the target T4, PDL1-ECD-His蛋白 (human, UniProt Q9NZQ7 19-238).
T4 construct: extracellular domain; Made in HEK-293E cells with an added N-terminal signal peptide (not part of the mature protein); also called PD-L1抗原
As to the kind of experiment: ELISA, PDL1-ECD-His coated, HRP goat anti-human Fc.
In turn, B1 gave a concentration for a half-maximal effect (EC50) of 0.15 nM.
Molecule B5 had an EC50 of 0.13 nM.
B3: the EC50 turned out to be 0.13 nM.
In turn, B4 showed an EC50 of 0.14 nM.

The target in a further assay is T3, PDL1-ECD-hFc蛋白. As to the kind of experiment: bridging ELISA: PDL1-ECD-hFc coated, antibody titrated, then 1 μg/ml KDR-ECD-His, HRP-anti-His (binding of both antigens at once).
In turn, B1 had an EC50 of 0.2 nM.
Still for that read-out and setting: the same measure for B3: 0.13 nM.
With B4, the EC50 came out at 0.14 nM.

One may read the EC50 as the concentration giving half of the maximal effect. The low end stands for higher potency in that assay, the high end for lower potency in that assay.
